This data set has as its target T1, Phi29 DNA polymerase (Bacillus phage phi29) (UniProt P03680).
T1 sequence: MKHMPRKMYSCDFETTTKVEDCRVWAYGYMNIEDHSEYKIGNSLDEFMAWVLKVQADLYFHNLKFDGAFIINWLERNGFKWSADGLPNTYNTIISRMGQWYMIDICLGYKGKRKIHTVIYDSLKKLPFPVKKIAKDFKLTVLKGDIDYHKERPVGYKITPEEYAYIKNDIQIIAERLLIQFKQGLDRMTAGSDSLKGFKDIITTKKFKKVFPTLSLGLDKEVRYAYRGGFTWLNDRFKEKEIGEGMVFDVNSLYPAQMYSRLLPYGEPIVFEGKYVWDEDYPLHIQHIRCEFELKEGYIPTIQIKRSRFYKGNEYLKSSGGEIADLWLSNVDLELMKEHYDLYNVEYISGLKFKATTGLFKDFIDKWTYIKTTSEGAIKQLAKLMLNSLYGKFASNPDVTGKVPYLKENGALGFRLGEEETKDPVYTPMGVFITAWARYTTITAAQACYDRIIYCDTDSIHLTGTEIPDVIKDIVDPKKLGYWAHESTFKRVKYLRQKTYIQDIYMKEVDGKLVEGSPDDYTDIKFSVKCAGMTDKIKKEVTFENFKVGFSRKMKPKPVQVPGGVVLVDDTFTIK
In words: cleavage_in_vitro. The following applies: Tango buffer, 37 C, 3 h; Mg2+, Mn2+ or Co2+ required; scale: % increase in acid-soluble product vs no enzyme.

Experimental findings from patent publication US20090202993 are described below.

In the case of [3H]poly(A) RNA, the activity was found to be 30.
